Source: US7919262B2, “14-3-3 proteins for diagnosis of Parkinson's disease” (The UAB Research Foundation, priority 2007, dated 2011)

B1: 14-3-3σ: 14-3-3 polypeptide σ isoform, overexpressed from expression vector (protein, UniProt P31947 1-248, looked up)
14-3-3 protein sigma: MERASLIQKAKLAEQAERYEDMAAFMKGAVEKGEELSCEERNLLSVAYKNVVGGQRAAWRVLSSIEQKSNEEGSEEKGPEVREYREKVETELQGVCDTVLGLLDSHLIKEAGDAESRVFYLKMKGDYYRYLAEVATGDDKKRIIDSARSAYQEAMDISKKEMPPTNPIRLGLALNFSVFHYEIANSPEEAISLAKTTFDEAMADLHTLSEDSYKDSTLIMQLLRDNLTLWTADNAGEEGGEAPQEPQS
B2: 14-3-3β: 14-3-3 polypeptide β isoform, overexpressed from expression vector (protein, UniProt P31946 1-246, looked up)
14-3-3 protein beta/alpha: MTMDKSELVQKAKLAEQAERYDDMAAAMKAVTEQGHELSNEERNLLSVAYKNVVGARRSSWRVISSIEQKTERNEKKQQMGKEYREKIEAELQDICNDVLELLDKYLIPNATQPESKVFYLKMKGDYFRYLSEVASGDNKQTTVSNSQQAYQEAFEISKKEMQPTHPIRLGLALNFSVFYYEILNSPEKACSLAKTAFDEAIAELDTLNEESYKDSTLIMQLLRDNLTLWTSENQGDEGDAGEGEN
B3: 14-3-3η: 14-3-3 polypeptide η isoform, overexpressed from expression vector (protein, UniProt Q04917 2-246, looked up)
14-3-3 protein eta: GDREQLLQRARLAEQAERYDDMASAMKAVTELNEPLSNEDRNLLSVAYKNVVGARRSSWRVISSIEQKTMADGNEKKLEKVKAYREKIEKELETVCNDVLSLLDKFLIKNCNDFQYESKVFYLKMKGDYYRYLAEVASGEKKNSVVEASEAAYKEAFEISKEQMQPTHPIRLGLALNFSVFYYEIQNAPEQACLLAKQAFDDAIAELDTLNEDSYKDSTLIMQLLRDNLTLWTSDQQDEEAGEGN

Key:
[1] = test system: SK-N-BE(2)-M17 (M17) cells; test: Rotenone toxicity in stably transfected cell lines, LDH release; format: cell-based; conditions: stable overexpression, 48 hours; for protection against rotenone toxicity (LDH release): rotenone at varying concentrations
Description: Cell lines stably-transfected with either 14-3-3θ or empty vector were treated with varying concentrations of rotenone (0-25 μM) for 24 hours (FIG. 6A), 30 hours (FIG. 6B), or 48 hours (FIG. 6C). Cell death was assayed by LDH release into the culture media. LDH release into media was normalized to total LDH release for each well. […] Rater was blind to experimental condition. n=8 for each experimental condition. *p<0.05, ***p<0.001 (Bonferroni's multiple comparison test).
(§1) M17 cell lines stably-transfected with either a 14-3-3 isoform or empty vector were treated with varying concentrations of rotenone (0-25 μM) for 48 hours. Cell death was assayed by LDH release into the culture media. LDH release into media was normalized to total LDH release for each well. […] Results reflect two to three independent experiments with at least two replicates per experiment. *p<0.05, **p<0.01, ***p<0.001 (Bonferroni's multiple comparison test).
Additional studies were performed to evaluate the effect of 14-3-3 polypeptide isoforms in mammalian cells. In these studies, cDNA clones for the 14-3-3 polypeptide β, γ, ε, η, θ, and σ isoforms were subcloned into the mammalian expression vector pcDNA 3.1/V5/His (Invitrogen). The polypeptide expressed from this vector contains the particular 14-3-3 isoform with a V5 and a His6 tag at the C-terminal end. […] SK-N-BE(2)-M17 (M17) cells, a dopaminergic-producing human neuroblastoma cell line, were transfected with each isoform or empty vector using Superfect, and stably-transfected cells were selected for in the presence of G418.
The M17 14-3-3θ clones were examined for their resistance to rotenone (0-25 μM). M17 cell lines stably transfected with either 14-3-3θ or empty vector were treated with rotenone for 24 (FIG. 6A), 30 (FIG. 6B) or 48 hours (FIG. 6C). Cell death was assayed by […] (LDH) release into the culture media using the LDH assay kit from Roche. LDH release into media was normalized to total LDH release for each well. Results reflect three independent experiments with at least two replicates per experiment.
Stable M17 cell lines overexpressing these other isoforms were treated with rotenone at varying concentrations, and then cell death was assayed at 48 hours by LDH release. […]

H4 cells = test: α-syn toxicity assay, adenylate kinase released into the media; format: cell-based; conditions: co-transfected with wildtype α-syn; 24 hours after transfection; vs empty vector
Description: Briefly, H4 cells were transfected with wildtype α-syn and each of the 14-3-3 polypeptide isoforms or empty vector controls as discussed above. Twenty-four hours after transfection, cell death was assayed by adenylate kinase activity in the media (n=4, *p<0.05, **p<0.01, ***p<0.001).
Primers against each of the human 14-3-3 isoforms were designed using Primer3. Primers against 14-3-3β (NM_018753) were 5′ […] 3′ (forward; SEQ ID NO. 9) and 5′ […] 3′ (reverse; SEQ ID NO. 10). Primers against 14-3-3ε (NM_009536) were 5′ […] 3′ (forward; SEQ ID NO. 11) and 5′ […] 3′ (reverse; SEQ ID NO. 12). Primers against 14-3-3γ (NM_018871) were 5′ […] 3′ (forward; SEQ ID NO. 13) and 5′ […] 3′ (reverse; SEQ ID NO. 14). Primers against 14-3-3η (NM_011738) were 5′ […] 3′ (forward; SEQ ID NO. 15) and 5′ […] 3′ (reverse; SEQ ID NO. 16). Primers against 14-3-3θ (NM_011739) were 5′ […] 3′ (forward; SEQ ID NO. 17) and 5′ […] 3′ (reverse; SEQ ID NO. 18). Primers against 14-3-3σ (NM_018754) were 5′ […] 3′ (forward; SEQ ID NO. 19) and 5′ […] 3′ (reverse; SEQ ID NO. 20). Primers against 14-3-3ζ(NM_011740) were 5′ […] 3′ (forward; SEQ ID NO. 21) and 5′ […] 3′ (reverse; SEQ ID NO. 22). Primers against GAPDH were 5′ tggtgaagcaggeatctga 3′ (forward; SEQ ID NO. 23) and 5′ […] […] All cells stained for α-syn were scored as positive or negative for α-syn aggregates, with the rater blind to experimental condition. • α-syn toxicity assay H4 cells were transfected with α-syn and either empty vector control or a 14-3-3 isoform using Superfect transfection reagent (Qiagen). 24 hours after transfection, toxicity was measured by the amount of adenylate kinase released into the media using the ToxiLight™ kit (Cambrex). • Creation of stable cell lines Each 14-3-3 isoform was subcloned into the mammalian expression vector mcDNA3.1/V5-His (Invitrogen). […] Protein concentrations of supernatants were determined by the bicinchoninic acid assay (BCA; Pierce, Rockford, Ill.). […]

M17 cells = test: MPP+ toxicity in stably transfected cell lines, LDH release; format: cell-based, human; conditions: stable overexpression; MPP+ 0-10 mM; 24 hours
Description: as §1, with “Cell” for “M17 cell”, “MPP+” for “rotenone (0-25 μM)”, “24” for “48”, “well. Lines overexpressing 14-3-3θ (FIG. 9A), 14-3-3ε (FIG. 9B), or 14-3-3γ (FIG. 9C) were more resistant to MPP+ in a dose-dependent manner compared to control stable cells.” for “well.”, “experiment.” for “experiment. *p<0.05,”
The 14-3-3 expressing M17 clones were also tested for resistance to the neurotoxin 1-methyl-4-phenylpyridinium ion (MPP+), which is a metalbolite of 1-methyl-4-phenyl-1,2,3,6-tetrahydropyridine (MPTP). M17 cells expressing the 14-3-3 isoforms were prepared as described. M17 cells were treated with MPP+ (0-10 mM) for 24 hours (FIGS. 9A-G). Cell death was assayed by LDH release into the culture media as described above.
Primers against each of the human 14-3-3 isoforms were designed using Primer3. Primers against 14-3-3β (NM_018753) were 5′ […] 3′ (forward; SEQ ID NO. 9) and 5′ […] 3′ (reverse; SEQ ID NO. 10). Primers against 14-3-3ε (NM_009536) were 5′ […] 3′ (forward; SEQ ID NO. 11) and 5′ […] 3′ (reverse; SEQ ID NO. 12). Primers against 14-3-3γ (NM_018871) were 5′ […] 3′ (forward; SEQ ID NO. 13) and 5′ […] 3′ (reverse; SEQ ID NO. 14). Primers against 14-3-3η (NM_011738) were 5′ […] 3′ (forward; SEQ ID NO. 15) and 5′ […] 3′ (reverse; SEQ ID NO. 16). Primers against 14-3-3θ (NM_011739) were 5′ […] 3′ (forward; SEQ ID NO. 17) and 5′ […] 3′ (reverse; SEQ ID NO. 18). Primers against 14-3-3σ (NM_018754) were 5′ […] 3′ (forward; SEQ ID NO. 19) and 5′ […] 3′ (reverse; SEQ ID NO. 20). Primers against 14-3-3ζ(NM_011740) were 5′ […] 3′ (forward; SEQ ID NO. 21) and 5′ […] 3′ (reverse; SEQ ID NO. 22). Primers against GAPDH were 5′ tggtgaagcaggeatctga 3′ (forward; SEQ ID NO. 23) and 5′ […] 3′ (reverse; SEQ ID NO. 24) and were used to normalize PCR results. • α-syn aggregation assay H4 cells were transfected with synphilin, α-syn/green fluorescent protein (synT), and either empty vector control or a 14-3-3 isoform using Superfect transfection reagent (Qiagen). 24 hours after transfection, cells were fixed with 4% paraformaldehyde and immunostained with a monoclonal antibody against α-syn (BD Transduction) and a secondary Alexa 488-conjugated goat anti-mouse antibody (Molecular Probes). All cells stained for α-syn were scored as positive or negative for α-syn aggregates, with the rater blind to experimental condition. • α-syn toxicity assay H4 cells were transfected with α-syn and either empty vector control or a 14-3-3 isoform using Superfect transfection reagent (Qiagen). 24 hours after transfection, toxicity was measured by the amount of adenylate kinase released into the media using the ToxiLight™ kit (Cambrex). • Creation of stable cell lines Each 14-3-3 isoform was subcloned into the mammalian expression vector mcDNA3.1/V5-His (Invitrogen). BE(2)-M17 cells were transfected with each isoform or empty vector using Superfect, and stably-transfected cells were selected for in the presence of G418. […] Protein concentrations of supernatants were determined by the bicinchoninic acid assay (BCA; Pierce, Rockford, Ill.). […]

| Molecule | protection against rotenone toxicity (LDH release) [1] | effect on α-syn dependent cell death (adenylate kinase activity in the media) (H4 cells) | protection against MPP+ toxicity (LDH release) (M17 cells) | rotenone-induced cell death, % of that in control cells ([1]; 1 μM rotenone, LDH release) |
| --- | --- | --- | --- | --- |
| B1 | did not provide any protection | protective effects |  |  |
| B2 | some protection |  | did not show any significant protection | 75% |
| B3 | did not provide any protection |  |  |  |
